Data on 5 substances can be found in patent publication US11612662B2, “Multi-arm polymeric prodrug conjugates of pemetrexed-based compounds” (priority 2010, dated 2023).

A short description of one data set: in vivo. Particulars: for tolerability of the dosage level: tolerated if treatment-related weight loss <20%; for Days of Deaths (s = surviving at study end): five mice listed singly; for common clinical signs / necropsy findings: dosage levels found tolerated; for Max. Mean Body Weight change during Rx (%) / MTD (maximum tolerated dose): intravenously once each day for ten days; for % Rx Related Deaths / Day of Max. Mean Body Weight Loss (body weight nadir): once each day for ten days; for MTD (maximum tolerated dose): mice fed a folate deficient diet, dose equivalents. As to the method:
The purpose of this study was to determine the maximum tolerated dose for pemetrexed (PMX), Compound 20a (from Example 1), Compound 20b (from Example 1), Compound 20c (from Example 1), and Compound 20d (from Example 1) in female SCID mice fed a low folate diet. All compounds were administered intravenously, once each day, for ten consecutive days.
Calculations were made to provide “dose equivalents” between PMX, Compound 20a, Compound 20b, Compound 20c and Compound 20d, which “dose equivalents” along with the “actual dose” administered are provided in Table 2. All dosagese in this example are expressed in terms of “dose equivalents” and adjustments were made for excipients, salts and hydration state.
Female SCID mice (HsdIcr:Ha (ICR)-Prkdc-scid) were obtained from Harlan. They were seven weeks old on Day 1 of the experiment. The mice in Groups 1 and 2 were fed irradiated Rodent Diet 5053 (LabDiet™). The mice in Groups 3 through 19 were fed irradiated Folic Acid Deficient Purina TestDiet supplemented with 1% succinylsufathiazol from 14 days prior to dosing until 14 days after dosing was completed, at which time the study was terminated and the mice were then euthanized. All groups received drinking water ad libitum. Mice were housed in static cages in clean rooms that provide H.E.P.A filtered air into the environment at 100 complete air changes per hour. All treatments, body weight determinations, and tumor measurements were carried out in the environment. The environment was controlled to a temperature range of 70°±2° F. and a humidity range of 30-70%. […] Mice found in obvious distress or in a moribund condition were euthanized. The study was carried out in an AAALAC accredited facility.
Treatments began on Day 1. […] Mice in Groups 3 through 19 were fed irradiated Folic Acid Deficient Purina TestDiet with 1% Succinylsufathiazol for 14 days prior to dosing as well as throughout the entire experiment. All mice were dosed according to individual body weight on the day of treatment (0.2 ml/20 g).
Mice were weighed on each day of treatment and at least three times weekly thereafter. Individual body weights were recorded three times weekly. […] In this report, a dosage level is described as tolerated if treatment-related weight loss (during and two weeks after treatment) is <20%. Upon death or euthanasia, all mice were necropsied to provide a general assessment of potential cause of death and perhaps target organs for toxicity.

The subject of the next data set is xenograft. Nature of the data set: In vivo xenograft study. Details: species or system female athymic nu/nu mice. Particulars: as of day 26; intravenously, at 80% and at 50% of the single dose maximum tolerated dose. As to the method:
Briefly, for run of the experiment, a previously untreated group of 8-12 week old mice was intravenously administered a test article prepared in saline and diluted to appropriate concentrations to allow administration volumes of a maximum of 20 mL/kg. Each compound of interest was tested twice: once at 80% of the maximum tolerated dose and once at 50% of the maximum tolerated (maximum tolerated doses calculated on the single dose maximum tolerated dose study).
Mice were observed daily for clinical signs and body weights were recorded daily (except on weekend days) then biweekly until the end of study. Dosing was terminated for any group in which mean weight loss exceeded 20% or >10% of animals died. Moribund animals were euthanized.

Data set [1] is described as follows: Single dose maximum tolerated dose study. The data set is classed as in vivo, mice. Particulars: single intravenous dose; for Single dose MTD: dose equivalents, in mg/kg. On the procedure:
Because of too much efficacy of daily dosing for ten days in a pilot xenograft study (likely due to the effects of repeated dosing), a single dose maximum tolerated dose study was conducted using a method similar to that provided in Example 3 in order to have a better dosing schedule for a comparative xenograft study.

Where [2] appears, read: low folate diet, 3.75 mg/kg/inj dose equivalents.
Setting [3] is: low folate diet, 1 mg/kg/inj dose equivalents.
The mark [4] stands for this setting: low folate diet, 15 mg/kg/inj dose equivalents.

For “4-arm-PEG10k-γ-amide-Pemetrexed Conjugate [Compound 20a]”, in the data set “in vivo” (low folate diet, 1 mg/kg), the “maximum treatment-related body weight loss” value is given as “approximately 3.0%” and the “tolerability of the dosage level” value is “tolerated”. In the data set “in vivo” (low folate diet, 3.75 mg/kg), the “maximum treatment-related body weight loss” value is reported as “approximately 3.0%” and the “tolerability of the dosage level” value is recorded as “tolerated”. Also, in “in vivo” (setting [2]), the “Days of Deaths (s = surviving at study end)” value (from here on “Days of Deaths”) is listed as “s, s, s, s, s”; the “Max. Mean Body Weight change during Rx (%)” value is given as −3.0%; the “% Rx Related Deaths” value is 0%; the “Day of Max. Mean Body Weight Loss (body weight nadir)” value (shortened to “Day of Max. Mean Body Weight Loss”) turned out to be 8. In “in vivo” (low folate diet, 15 mg/kg), the “maximum treatment-related body weight loss” value was found to be 14.9%, the “time to recover lost body weight” value is listed as “approximately 10 days” and the “tolerability of the dosage level” value was “toxic”. In “in vivo” (low folate diet), the common clinical signs result was “Rough pelage”; the necropsy findings entry was “bloated intestines and air filled stomachs”. In “in vivo” (setting [3]), the “Max. Mean Body Weight change during Rx (%)” value is −3.4%, the “% Rx Related Deaths” value is listed as 20% and the “Day of Max. Mean Body Weight Loss” value was found to be 5. Further, in the data set “in vivo” (setting [4]), the “Max. Mean Body Weight change during Rx (%)” value is reported as −14.9%, the “% Rx Related Deaths” value worked out at 40% and the “Day of Max. Mean Body Weight Loss” value was determined as 8. Also, the “MTD (maximum tolerated dose)” value in the data set “in vivo” was in the range of 3.75 to 15 mg/kg.

Turning to “4-arm-PEG20k-γ-amide-Pemetrexed Conjugate [Compound 20b]”, in the data set with xenograft, the “tumor volume compared with saline control” value is on record as “significantly less tumor volume than saline control” and the “tumor volume compared with the other articles tested” value is “lowest tumor volumes of all articles tested”. Further, the “Single dose MTD” value in data set [1] stood at 70. Moreover, in data set [1] (tested dose (equiv) 70), the “BWL (body weight loss)” value is reported as −8.7%, the “day (of body weight loss)” value is reported as 7 and the treatment-related deaths was found to be 0. In data set [1] (tested dose (equiv) 95), the “BWL (body weight loss)” value is −16.4%, the “day (of body weight loss)” value is 7 and the treatment-related deaths was 0. For the same substance, in data set [1] (tested dose (equiv) 125), the “BWL (body weight loss)” value is −24.4%, the “day (of body weight loss)” value came out at 7, the “mean day of death” value is reported as 9 and the treatment-related deaths came out at 1. Besides, in “in vivo” (setting [3]), the “Days of Deaths” value is “s, s, s, s, s”; the “Max. Mean Body Weight change during Rx (%)” value was −1.8%; the “Day of Max. Mean Body Weight Loss” value is given as 5. For the same substance, in “in vivo” (low folate diet, 1 mg/kg), the “tolerability of the dosage level” value is reported as “well tolerated”. In addition, in the data set “in vivo” (setting [2]), the “Days of Deaths” value is “s, s, s, s, s”; the “Max. Mean Body Weight change during Rx (%)” value is listed as −6.5%; the “Day of Max. Mean Body Weight Loss” value was 5. In “in vivo” (low folate diet, 3.75 mg/kg), the “tolerability of the dosage level” value was “well tolerated”. Moreover, in “in vivo” (setting [4]), the “Days of Deaths” value is “s, s, s, s, s”; the “Max. Mean Body Weight change during Rx (%)” value is −16.9%; the “Day of Max. Mean Body Weight Loss” value was determined as 12. Besides, the “tolerability of the dosage level” value in the data set “in vivo” (low folate diet, 15 mg/kg) was “well tolerated”. Moreover, in “in vivo” (low folate diet), the common clinical signs result is given as “Rough pelage” and the necropsy findings result was “Nothing significant”. In addition, the “MTD (maximum tolerated dose)” value in the data set “in vivo” is given as around 15 mg/kg.

For “4-arm-PEG-20k-γ-Ethyl-Ester-pemetrexed [Compound 24b]”, in the data set on xenograft, the “tumor volume compared with saline control” value is on record as “significantly less tumor volume than saline control”. The “Single dose MTD” value in data set [1] was determined as 12. The treatment-related deaths in data set [1] (tested dose (equiv) 8), in data set [1] (tested dose (equiv) 12) and in data set [1] (tested dose (equiv) 20) was 0 in each case. The “BWL (body weight loss)” value is −8.9% in data set [1] (tested dose (equiv) 12) and −10.4% in data set [1] (tested dose (equiv) 20). In addition, the “day (of body weight loss)” value in data set [1] (tested dose (equiv) 12) and in data set [1] (tested dose (equiv) 20) was 5 in each case.

On to “4-arm-PEG-20k-γ-isopropyl-ester-pemetrexed [Compound 28]”, for which the “tumor volume compared with saline control” value with xenograft is recorded as “significantly less tumor volume than saline control”. The “Single dose MTD” value in data set [1] is 10. Also, in data set [1] (tested dose (equiv) 10), the “BWL (body weight loss)” value is listed as −7.3%, the “day (of body weight loss)” value is reported as 9 and the treatment-related deaths is given as 0. Moreover, in data set [1] (tested dose (equiv) 18), the “BWL (body weight loss)” value was −6.6%, the “day (of body weight loss)” value was 5 and the treatment-related deaths was 0. Also, in data set [1] (tested dose (equiv) 25), the “BWL (body weight loss)” value is listed as −9.1%, the “day (of body weight loss)” value turned out to be 7 and the treatment-related deaths was determined as 0.

With “4-arm-PEG-40k-γ-Ethyl-Ester-pemetrexed [Compound 24c]”, the “tumor volume compared with saline control” value in the data set on xenograft is listed as “significantly less tumor volume than saline control”. In data set [1], the “Single dose MTD” value turned out to be 10. In addition, in data set [1] (tested dose (equiv) 5), the “BWL (body weight loss)” value is given as −0.5%, the “day (of body weight loss)” value was found to be 5 and the treatment-related deaths is 0. Further, in data set [1] (tested dose (equiv) 10), the “BWL (body weight loss)” value is −7.6%, the “day (of body weight loss)” value is 5 and the treatment-related deaths was 0. In addition, in data set [1] (tested dose (equiv) 15), the “BWL (body weight loss)” value is given as −15.7%, the “day (of body weight loss)” value stood at 7 and the treatment-related deaths stood at 0.
